From patent US7566555B2, “Method of expressing proteins comprising non-naturally-occurring amino acids” (Riken, priority 2002, dated 2009)

Assays:
CHO cells = test: Effect on growth of CHO cells
Experimental: Next, 3-iodo-L-tyrosine was added to the medium to a final concentration of 0.3 mM (L-tyrosine was present at twice that concentration (FIG. 5B)).

TyrRS = test: Aminoacylation reaction of TyrRS variants, inorganic phosphate detected with Biomol Green; type: biochemical, E. coli; parameters: key: +++: the activity detected with an enzyme concentration of 0.50 μM; ++: the activity detected with an enzyme concentration of 0.25 μM; the activity detected with an enzyme concentration of 0.25 μM, although the activity is lower than that represented by “++”; −: no activity detected with an enzyme concentration of 0.25 μM
Excerpt: More preferably, a mutant TyrRS can be used in which the location corresponding to tyrosine (Y) at position 37 is substituted with valine (V), leucine (L), isoleucine (I) or alanine (A), and the location corresponding to glutamine (Q) at position 195 is substituted with alanine (A), cysteine (C), serine (S) or asparagine (N).

[1] = tested on: amber mutation in ras(Am); test: Amber suppression of ras(Am) in CHO cells, western blotting with anti-FLAG antibody; type: cell-based, Chinese hamster; details: for suppression efficiency (comparison): Ras and EGFR amber mutants, tetracycline 1 μg/mL
Experimental: Transfection was carried out using 0.5 to 2 μg of DNA for each plasmid per 35 mm plate in accordance with the Lipofect AMINE 2000 (Gibco BRL) method. Opti-MEM 1 (Gibco BRL) was used for the medium. Cell extracts were prepared 24 hours after transfection and applied to SDS-PAGE followed by western blotting using anti-FLAG2 antibody (Sigma) and the ECL+ Immunodetection System (Amersham Pharmacia Biotech). Band intensity was measured using the LAS-1000 plus image analyzer (Fuji Film).
In order to analyze amber suppression, the tyrosine codon at position 32 in a synthetic ras gene truncated from the wild type c-Ha-Ras was mutated to an amber codon. In order to detect expression, a FLAG peptide tag was added to the C-terminals of the ras genes, ras(WT) and its amber mutant ras(Am), and to the C-terminal of E. coli TyrRS.
These ras gene were introduced into CHO cells, and their products were detected by western blotting of cell extracts using anti-FLAG antibody (FIG. 4A).

## N[C@@H](Cc1ccc(O)c(I)c1)C(=O)O [3-iodo-L-tyrosine, reference compound]
CHO cells; 0.3 mM in the medium
  effect on cell reproduction: hardly any effect on cell reproduction

B1: Wild Type (Y37, Q195): TyrRS (wild type) of E. coli, SEQ. ID NO. 29 (protein, listed as Escherichia coli)
chain: MASSNLIKQLQERGLVAQVTDEEALAERLAQGPIALYCGFDPTADSLHLGHLVPLLCLKRFQQAGHKPVALVGGATGLIGDPSFKAAERKLNTEETVQEWVDKIRKQVAPFLDFDCGENSAIAANNYDWFGNMNVLTFLRDIGKHFSVNQMINKEAVKQRLNREDQGISFTEFSYNLLQGYDFACLNKQYGVVLQIGGSDQWGNITSGIDLTRRLHQNQVFGLTVPLITKADGTKFGKTEGGAVWLDPKKTSPYKFYQFWINTADADVYRFLKFFTFMSIEEINALEEEDKNSGKAPRAQYVLAEQVTRLVHGEEGLQAAKRITECLFSGSLSALSEADFEQLAQDGVPMVEMEKGADLMQALVDSELQPSRGQARKTIASNAITINGEKQSDPEYFFKEEDRLFGRFTLLRRGKKNYCLICWK
TyrRS; amino acid: 3-iodo-L-tyrosine
  Activity of TyrRS variants with 3-iodo-L-tyrosine: −
TyrRS; amino acid: Tyrosine
  Activity of TyrRS variants with Tyrosine: +++
CHO cells; expression from a transiently introduced plasmid
  effect on growth rate of CHO cells: hardly affect the growth rate

B2: TetBst1: tet02 sequence 10 bases upstream from the suppressor tRNA gene, SEQ. ID NO. 31 (nucleic acid)
DNA: TCTCCCTATCAGTGATAGAGATCCGTACACGTCGGAGGGGTAGCGAAGTGGCTAAACGCGGCGGACTCTAAATCCGCTCCCTTTGGGTTCGGCGGTTCGAATCCGTCCCCCTCCAGACAAGTGCGGTTTTTTTCTCCAGCTCCCG
modifications: a sequence of one of the induced expression systems prepared in Example 1 (TetBst1)
[1]
  suppression efficiency (comparison): higher suppression efficiency than TetBst0

B3: TetBst0×1: tet02 sequence immediately before the suppressor tRNA gene, SEQ. ID NO. 30, single copy (nucleic acid)
DNA: TCTCCCTATCAGTGATAGAGATCGGAGGGGTAGCGAAGTGGCTAAACGCGGCGGACTCTAAATCCGCTCCCTTTGGGTTCGGCGGTTCGAATCCGTCCCCCTCCAGACAAGTGCGGTTTTTTTCTCCAGCTCCCG
modifications: a sequence of one of the induced expression systems prepared in Example 2 (TetBst0)
notes: ID NO; 30, single copy
[1]; no tetracycline
  suppression when tetracycline is not added: nearly complete absence of suppression

B4: TetBst2: tet02 sequence 20 bases upstream from the suppressor tRNA gene, SEQ. ID NO. 32 (nucleic acid)
DNA: TCTCCCTATCAGTGATAGAGATCCGCCGACACACGTACACGTCGGAGGGGTAGCGAAGTGGCTAAACGCGGCGGACTCTAAATCCGCTCCCTTTGGGTTCGGCGGTTCGAATCCGTCCCCCTCCAGACAAGTGCGGTTTTTTTCTCCAGCTCCCG
modifications: a sequence of one of the induced expression systems prepared in Example 2 (TetBst2)
[1]
  suppression efficiency (comparison): lower than that of TetBst1
